The target in assay [1] is T1, KRAS G12V peptide on HLA-A*11:01 (human).
T1 peptide: VVGAVGVGK
In words: cytokine release.
Procedure: (§1) The affinity assay of TCR-T cells was performed as follows. Antigen-presenting cells (HLA-A*11:01 overexpressing T2 cells or K562 cells) were collected, and counted. […] 1 mL of cell suspension was added to each well of a 24-well plate, respectively. […] The cells were incubated in an incubator (37° C., 5% CO₂) for 2 h. After incubation, the antigen-presenting cells were collected and washed, and 100 μl of the antigen-presenting cells at 1E6/mL were added to corresponding wells of 96-well plates. […] Various nwTCR-T cells were co-cultured with the antigen-presenting cells (37° C., 5% CO₂) for 16 h respectively.

For assay [2], the target named is T2, KRAS G12V peptide on HLA-A*11:01 (human).
T2 peptide: VVVGAVGVGK
In words: multimer staining.

Assay [3] concerns the target T1, KRAS G12V peptide on HLA-A*11:01. In words: multimer staining.
Assay [4] addresses T2, KRAS G12V peptide on HLA-A*11:01. In words: cytokine release.
Procedure: as §1

The values below come from patent publication US20260176324A1 (published 2026).

B1: nwTCR-0127 (TCR, V domains shown)
Valpha: DQQVKQNSPSLSVQEGRISILNCDYTNSMFDYFLWYKKYPAEGPTFLISISSIKDKNEDGRFTVFLNKSAKHLSLHIVPSQPGDSAVYFCAGYQGGYKLSFGAGTTVTVRA
Vbeta: EAQVTQNPRYLITVTGKKLTVTCSQNMNHEYMSWYRQDPGLGLRQIYYSMNVEVTDKGDVPEGYKVSRKEKRNFPLILESPSPNQTSLYFCASSTRDRDNEQFFGPGTRLTVL
Consider B1, for which the binding result in assay [1] and in assay [2] was “recognises” in each case.

B2: nwTCR-2563 (TCR, V domains shown)
Valpha: SQQGEEDPQALSIQEGENATMNCSYKTSINNLQWYRQNSGRGLVHLILIRSNEREKHSGRLRVTLDTSKKSSSLLITASRAADTASYFCATDRTGGYNKLIFGAGTRLAVHP
Vbeta: ETGVTQSPTHLIKTRGQQVTLRCSSQSGHNTVSWYQQALGQGPQFIFQYYREEENGRGNFPPRFSGLQFPNYSSELNVNALELDDSALYLCASSLQTGDEQYFGPGTRLTVT
As to B2, the binding result in assay [1] and in assay [2] was “recognises” each time.

B3: nwTCR-0125 (TCR, V domains shown)
Valpha: AQKVTQAQTEISVVEKEDVTLDCVYETRDTTYYLFWYKQPPSGELVFLIRRNSFDEQNEISGRYSWNFQKSTSSFNFTITASQVVDSAVYFCARDQTGANNLFFGTGTRLTVIP
Vbeta: DVKVTQSSRYLVKRTGEKVFLECVQDMDHENMFWYRQDPGLGLRLIYFSYDVKMKEKGDIPEGYSVSREKKERFSLILESASTNQTSMYLCASSPPHLASGASTDTQYFGPGTRLTVL
For the molecule B3, the binding result in assay [1] and in assay [2] was “recognises” in each case.

B4: nwTCR-2424 (TCR, V domains shown)
Valpha: QKEVEQNSGPLSVPEGAIASLNCTYSDRGSQSFFWYRQYSGKSPELIMFIYSNGDKEDGRFTAQLNKASQYVSLLIRDSQPSDSATYLCARKKTSYDKVIFGPGTSLSVIP
Vbeta: DSGVTQTPKHLITATGQRVTLRCSPRSGDLSVYWYQQSLDQGLQFLIQYYNGEERAKGNILERFSAQQFPDLHSELNLSSLELGDSALYFCASSLGDSEQFFGPGTRLTVL
B4: in assay [3], the binding result is “recognises”.

B5: nwTCR-2392 (TCR, V domains shown)
Valpha: DQQVKQNSPSLSVQEGRISILNCDYTNSMFDYFLWYKKYPAEGPTFLISISSIKDKNEDGRFTVFLNKSAKHLSLHIVPSQPGDSAVYFCAASYAGSARQLTFGSGTQLTVLP
Vbeta: GAGVSQSPSNKVTEKGKDVELRCDPISGHTALYWYRQRLGQGLEFLIYFQGNSAPDKSGLPSDRFSAERTGESVSTLTIQRTQQEDSAVYLCASSPGGNYGYTFGSGTRLTVV
For B5, the binding result in assay [3] was “recognises”.

B6: nwTCR-0126 (TCR, V domains shown)
Valpha: AQKVTQAQTEISVVEKEDVTLDCVYETRDTTYYLFWYKQPPSGELVFLIRRNSFDEQNEISGRYSWNFQKSTSSFNFTITASQVVDSAVYFCALSDPRYSGGGADGLTFGKGTHLIIQP
Vbeta: DSGVTQTPKHLITATGQRVTLRCSPRSGDLSVYWYQQSLDQGLQFLIQYYNGEERAKGNILERFSAQQFPDLHSELNLSSLELGDSALYFCASSPRGGDSILDTQYFGPGTRLTVL
Consider B6, for which the binding result in assay [1] and in assay [2] was “recognises” throughout.

B7: nwTCR-2308 (TCR, V domains shown)
Valpha: KDQVFQPSTVASSEGAVVEIFCNHSVSNAYNFFWYLHFPGCAPRLLVKGSKPSQQGRYNMTYERFSSSLLILQVREADAAVYYCAGSNDYKLSFGAGTTVTVRA
Vbeta: EAQVTQNPRYLITVTGKKLTVTCSQNMNHEYMSWYRQDPGLGLRQIYYSMNVEVTDKGDVPEGYKVSRKEKRNFPLILESPSPNQTSLYFCASSTSPYNEQFFGPGTRLTVL
Consider B7, for which the binding result in assay [2] is “recognises”.

B8: nwTCR-2595 (TCR, V domains shown)
Valpha: ILNVEQSPQSLHVQEGDSTNFTCSFPSSNFYALHWYRWETAKSPEALFVMTLNGDEKKKGRISATLNTKEGYSYLYIKGSQPEDSATYLCAFNNQGGKLIFGQGTELSVKP
Vbeta: EAQVTQNPRYLITVTGKKLTVTCSQNMNHEYMSWYRQDPGLGLRQIYYSMNVEVTDKGDVPEGYKVSRKEKRNFPLILESPSPNQTSLYFCASSSGTGGGAEAFFGQGTRLTVV
As for B8, the binding result in assay [4] and in assay [3] was “recognises” in each case.

B9: nwTCR-2629 (TCR, V domains shown)
Valpha: AQSVTQLDSHVSVSEGTPVLLRCNYSSSYSPSLFWYVQHPNKGLQLLLKYTSAATLVKGINGFEAEFKKSETSFHLTKPSAHMSDAAEYFCVVSVWTDKLIFGTGTRLQVFP
Vbeta: GAVVSQHPSWVICKSGTSVKIECRSLDFQATTMFWYRQFPKQSLMLMATSNEGSKATYEQGVEKDKFLINHASLTLSTLTVTSAHPEDSSFYICSANRDFGIYEQYFGPGTRLTVT
Turning to B9, in assay [3], the binding result is recorded as “recognises”.

B10: nwTCR-2561 (TCR, V domains shown)
Valpha: GNSVTQMEGPVTLSEEAFLTINCTYTATGYPSLFWYVQYPGEGLQLLLKATKADDKGSNKGFEATYRKETTSFHLEKGSVQVSDSAVYFCALPAGGGADGLTFGKGTHLIIQP
Vbeta: GAGVSQSPSNKVTEKGKDVELRCDPISGHTALYWYRQSLGQGLEFLIYFQGNSAPDKSGLPSDRFSAERTGGSVSTLTIQRTQQEDSAVYLCASSFGTSGDQYEQYFGPGTRLTVT
Consider B10, for which the binding result in assay [3] is recorded as “recognises”.

B11: nwTCR-1862 (TCR, V domains shown)
Valpha: GEDVEQSLFLSVREGDSSVINCTYTDSSSTYLYWYKQEPGAGLQLLTYIFSNMDMKQDQRLTVLLNKKDKHLSLRIADTQTGDSAIYFCAERGTDSWGKLQFGAGTQVVVTP
Vbeta: GAVVSQHPSWVICKSGTSVKIECRSLDFQATTMFWYRQFPKQSLMLMATSNEGSKATYEQGVEKDKFLINHASLTLSTLTVTSAHPEDSSFYICSARFANYYEQYFGPGTRLTVT
As to B11, in assay [2], the binding result was “recognises”.

B12: nwTCR-1708 (TCR, V domains shown)
Valpha: QKEVEQNSGPLSVPEGAIASLNCTYSDRGSQSFFWYRQYSGKSPELIMFIYSNGDKEDGRFTAQLNKASQYVSLLIRDSQPSDSATYLCAVNMPGNMLTFGGGTRLMVKP
Vbeta: DARVTQTPRDKVTEMGQEVTMRCQPILGHNTVFWYRQTMMQGLELLAYFRNRAPLDDSGMPKDRFSAEMPDATLATLKIQPSEPRDSAVYFCASGPEGLDNEQFFGPGTRLTVL
As for B12, the binding result in assay [1] and in assay [2] was “recognises” in each case.

B13: nwTCR-2310 (TCR, V domains shown)
Valpha: SQQGEEDPQALSIQEGENATMNCSYKTSINNLQWYRQNSGRGLVHLILIRSNEREKHSGRLRVTLDTSKKSSSLLITASRAADTASYFCATDGGGGADGLTFGKGTHLIIQP
Vbeta: DSGVTQTPKHLITATGQRVTLRCSPRSGDLSVYWYQQSLDQGLQFLIQYYNGEERAKGNILERFSAQQFPDLHSELNLSSLELGDSALYFCASSLHRDSDTEAFFGQGTRLTVV
As for B13, the binding result in assay [3] is listed as “recognises”.

B14: nwTCR-2390 (TCR, V domains shown)
Valpha: SQQGEEDPQALSIQEGENATMNCSYKTSINNLQWYRQNSGRGLVHLILIRSNEREKHSGRLRVTLDTSKKSSSLLITASRAADTASYFCATDSGGGADGLTFGKGTHLIIQP
Vbeta: DSGVTQTPKHLITATGQRVTLRCSPRSGDLSVYWYQQSLDQGLQFLIQYYNGEERAKGNILERFSAQQFPDLHSELNLSSLELGDSALYFCASSHGRDSTDTQYFGPGTRLTVL
Regarding B14, in assay [3], the binding result is listed as “recognises”.

B15: nwTCR-2241 (TCR, V domains shown)
Valpha: ELKVEQNPLFLSMQEGKNYTIYCNYSTTSDRLYWYRQDPGKSLESLFVLLSNGAVKQEGRLMASLDTKARLSTLHITAAVHDLSATYFCAVDKAAGNKLTFGGGTRVLVKP
Vbeta: GEEVAQTPKHLVRGEGQKAKLYCAPIKGHSYVFWYQQVLKNEFKFLISFQNENVFDETGMPKERFSAKCLPNSPCSLEIQATKLEDSAVYFCASSPHHRYEQYFGPGTRLTVT
In the case of B15, in assay [2], the binding result was “recognises”.
